This data set in a line: yeast display, Sf9 membrane polyspecificity reagent, FACS + sequencing; frameworks hold sequencing errors. Summed up: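 Polyreactivity labels are assigned by the sorting gate from which each nanobody was recovered. The gates were low and high (top ~1%), set on anti-HA fluorescence for expression and streptavidin fluorescence for reagent binding. Before sorting, galactose-induced (36–48 hours) yeast display cells were stained for 1 hour at 4 °C with 10% biotinylated, detergent-solubilized Sf9 membrane reagent.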
Consider “QVQLVESGGGLVQAGGSLRLSCAASGIIFYEYVMGWYRQAPGKERELVAAINRSGGSTYYADSVKGRFTISRDNAKNTVYLQMNSLKPEDTAVYYCAASSTYDGRKYYYWGQGTQVTVSS”, for which the “polyreactivity (PSR sort gate)” value was “high polyreactivity”. The result for “QVQLVESGGGLVQAGGSLRLSCAASGSIFTGNAMGWYRPAPGTERELVAAITRSGDSTYYADSVKGRFTISRDNAKNTVYLQMNSLKPEDTAVDYCNARWRYLHSYGYWGQGTQVTVSS” reads “low polyreactivity”; that for “QLQLVESGGGLVQAGGSLRLSCAASGSTFTFNAMGWYRQAPGKERELVATISRGGSTSYADSVKGRFTISRDNAKNTVYLQMNSLNPEDTAVYYCAAVLYPSIYGFAGGKTDYDYWGQGTQVTVSS”, “low polyreactivity”; that for “QVQLVESGGGLVQAGGTLRLSCAASGSIWRYAMGWYRKAPGKERELVATIARRGGSTYYADSVKGRFTISRDNAKNTVYLLMNSLKPEDPAVYYCAAAESASSFRFDYWGQGTQVTVSS”, “high polyreactivity”. The result for “QVQLVESGGGLVQAGGSLRLSCAASGYIFNYYAMGWYRQAPGKERELVAAISWDGTDTYYADSVKGRFTISRDNAKNTVYLQMNSLKPEDTAVYYCNADYDVYGWRNYWGQGTQVTVSS” reads “low polyreactivity”. The result for “QVQLVESGGGLVQAGGSLRLSCAASGRTFQLYAMGWYRQAPGKEMELVAAISTRGGSTYYADSVKGRFTISRDNAKNTVYLLMNSLKPEDTAVYYCAKDPSFTRGYKEGGGYDYWGQGTQVNVSS” reads “high polyreactivity”. With “QVQLVESGGGLVQAGGSLRLSCAASGYIFDRYAMGWYRQAPGKERELVAAISGRGGSTYYADSVKGRFTISRDNAKNTVYLQMNSLKPEETAVYYCARDVYVRNGQRARYDSWGQGTQVTVSS”, the “polyreactivity (PSR sort gate)” value is recorded as “high polyreactivity”. To “QVQLVESGGGLDQAGGSLRLSCAASGLIFGNYANRGYTQAPGKERELVAALSSGGSTHYADSVKGRFTISRDNAKNTVYLQMHSLNPEDTAVYYCAAGYRYAGNGQIANTGGYYWGQGTQVTVSW” belongs “low polyreactivity”; to “QVQLVESGGGLVQAGGSLRLSCAASGITFYGNAMGWYRQAPGKERELVAAIRRGGSTNYADSVKGRFTISRDNAKNTVYLQMNSLKPEDTALYYCAADRYGYTYRNYRVGYWGQGTQVTVSS”, “high polyreactivity”; to “QVQLVESGGGLVQAGGSLRLSCAASGSIFTNNAMGWYRQAPGKERELVAGISIRGSSTYADSVKGRFTISRDNAKNTVYLQMNSLKPEDTAVYDCAADAYLELDPEVDYWGQGTQVTVSS”, “low polyreactivity”. To “QVQLVESGGGLVQAGGSLRLSCAASGRTFRSYTMGWYRQAPGKERELVAAISYNGGSTYYADSVKGRFTISRDNAKNTVYLQMNSLKPEDTAVYYCNKDFDGRFDYWGQGTQVTVSS” belongs “high polyreactivity”. To “QVQLVESGGGLVQAGGSLRLSCAASGFTLTGNAMGWYRQAPGKERELVAAISRNGGSTFYADSVKGRFTISRDNAKNTVYLQMNSLKPEDTAVYYCNASRFRHSAYKYDSWGQGTQVTVSS” belongs “high polyreactivity”; to “QVQLVESGGGLVQAGGSLRLSCAASGSIFGVYAMGWYRQAPGKERELVARISSGGGSTYYADSVKGRFTISRDNAKNTVYLQMNSLKPEDTAVYYCATRYYGYYPVNYWGQGTQVTVSS”, “high polyreactivity”. On to “QVQLVESGGGLVQAGGSLRLSCAASGSTFDYYAMGWYRQAPGKERELVAAITWSGGTTYYADSVKGRFTISRDNAKNTVYLQMNSLKPEDTAVYYCAAESTLPIIDRDDYWGQGTQVTVSS”, for which the “polyreactivity (PSR sort gate)” value was “low polyreactivity”.

For “QVQLVESGGGLVQAGGSLRLSCAASGRIFVINTMGWYRQAPGKERELVAAISRGGSTNYADSVKGRFTISRDNAKNTVYLQMNSLKPEDTAVYDCAATGYILFAGCGYDYWGEGTQVTVSS”, the “polyreactivity (PSR sort gate)” value is “low polyreactivity”.

As for “QVQLVDSGGGLVQAGGRLRLSCAASGVTIQPNARGWYRQAPGKERELVPSISWSDGSTYYADSVKGRFTISRDNAKNTVFLQMNSLKPEDTAVYYCAADFTYYDPPYRDYNYESWGQGTQVTVSS”, the “polyreactivity (PSR sort gate)” value is “low polyreactivity”.

Take “QVQLVESGGGLVQAGGSLRLSCAASGRIFRRYAMGWYRQAPGKERELVASITWGGSSTSYADSVKGRFTISRDNAKNTVYLQMNSLKPEDTAVYYCNADFPTAIPYGYDYWGQGTQVTVSS”: the “polyreactivity (PSR sort gate)” value is “low polyreactivity”.

On to “QVQIVESGGGLVQAGGSLRLSCAASGSIFRKNAMGWYRQAPGKERELVAAITRRGGSTYYADSVKARFTISRDNAKNTVYLQMNSLKPEDTAVYYCAATGGAPYKIEWGQGTQVTVSS”, for which the “polyreactivity (PSR sort gate)” value is “low polyreactivity”. The result for “QVQLVESGGGLVQAGGSLRLSCAASGSIFNYYDMGWYRQAPGKEREFVARITIGGSSTNYADSVKGRFTISRDNAKNTVYLQMNSLKPEDTAVYYCAASQYGIFFSQMDYWGQGTQVTVSS” reads “low polyreactivity”; that for “QVQLVESGGGLVQAGGSLRLSCAASGIYGYNAMGWYRQAPGKERELVAAITSSGTSTYYADSVKGRFTISRDNAKNTVYLQMNSLKPEDTAVYYCAALHSGTWTGYGYWGQGTQVTVSS”, “low polyreactivity”; that for “QVQLVESGGGLVQEGGSLRLICAASGRTFYPNAMGWYRQAPGKERELVADITYSGASTYYADSVKGRFTISRDYAKNTVYLQMNSLKPEDTAVYYCNADDSCVLVYVPYDYWGQGTQVTVSS”, “low polyreactivity”. With “QVQLVESGGGLVQAGGSLRLSCAASGSIFLYNTMGWYRQAPGKERELVAAITYSGGSTYYADSVKGRFTISRDYAKNTVYLQMNSLKPEDTAVDYCNARHYSAYYSWGQGTQVTVSS”, the “polyreactivity (PSR sort gate)” value is “high polyreactivity”. Take “QDQLVESGGVLVQAGGSLRLSCADSGFSFANYVMGWYRQAPGKERELFAAITTPGGSTSYADSVKGRFTISRDNAKTNVYLQMPSLKPEDTAVYFCKKTTYYPSDYDYWGQGTQVTVSS”: the “polyreactivity (PSR sort gate)” value is reported as “low polyreactivity”. With “QVHLVESGGGLVQAGGSLRLSCAASGSIKQNAMGWYRQAPGKERELVAAIDWDGSSTYYADSVKGRFTISRDNAKNTVYLQMNSLKPEDTAVYYCNTDYTGPDGTDEYDYWGQGTQVTVSS”, the “polyreactivity (PSR sort gate)” value is reported as “low polyreactivity”.

For “QLQLVESGGGLVQAGGSLRLSCAASGNTFLLNAMGWYRQAPGKERELVAGIRWGAGRSYYADSVKGRFTISRDNAMNTVYVQMNSLKAEDTAVYSGAADPWSGSDYWGQGTQVTVSS”, the “polyreactivity (PSR sort gate)” value is listed as “low polyreactivity”.

Turning to “QVQLVESGGGLVQAGGSLRLSCAASGGIFGHNAMGWYRQAPGKERELVAAISYTGGSTYYADSVKGRFTISRDNAKNTVYLQMNSLKPEDTAVYYCNAVQRRFRYPFDYWGQGTQVTVSS”, the “polyreactivity (PSR sort gate)” value was “low polyreactivity”. To “QVQLVESGGGLVQAGGSLRLSCAASGRTIDHNTMGWYRQAPGKERELVAAISWSGGTTYYADSVKGRFTISRDNEKNTVYLQMNSLKPEDTAVYYCAADRSRGSYGYQYDYWGQGTQVSVSS” belongs “low polyreactivity”; to “QVQLVESGGGLVQAGGSHRFSCAASGRIIYTNAMGWYRQAPGKEREFVAVISWGGDTTYYADSVKGRFTISRDNAKNTVYLQMNSLKPEDTAVYYCNAEWGPTYEIYDSWGPGTQVTVSS”, “low polyreactivity”; to “QVQLEETGRGLVQAGGSLRISSAASGGIFAHYVMGWYRQAPGKARELVAAISASGGSTYYADSVKGRFTISRDNAKNTVYLQMNSLKPEDTAVYYCAAYYLAWFADRYKTVGSAMDYWGQVTQVTVSS”, “low polyreactivity”. To “QVQLVESGGGLVQAGGSLRLSCAASGSTFRGYAMGWYRQAPGKERELVAASTWSGVTTYYADSVKGRFTISRDNAKNNVYLQMHSLKPEDTAVYYCATGTLYSDGAIYGYWGQGTQVTVSS” belongs “low polyreactivity”; to “QVQIVESGGGLVQAGGSLRLSCAASGRTFNRNAMGWYRQAPGKERELVAAISRGGGGTFYADSVKGRFTISRDNAKNTVYLQMNSLKPEDTAVYYCAKTLRGWHTIITDYDYWGQGTQVTVSS”, “low polyreactivity”. To “QVQLVESGGGLVQAGGSLRLSCAASGRTFSGYAMGWYRQAPGKERELVAAISSGGGSTYYADSVKGRFTISRDIAKNTVYLQMNSLKPEDTAVYYCAADGYPGDYDYWGQGTQVTVSS” belongs “low polyreactivity”; to “QVQLVESGGGLVQAGGSLRLSCAASGSIFTGNAMGWYRQAPGKERELVAGISKSGGSTYYADSVKGRFTISRDNAKNTVYLQMNSLKPEDTAVYYCAAREGWWPYYYWGQGTQVTVSS”, “high polyreactivity”; to “QVQLVESGGGLFQAGGSLRLSCAASGGTFPYNAMGWYRPAPGKERELVATISFTDGSTYYADSVKGRFTLSRYIAKNTVYLQMNSLKPEDTAVYYCAKDYYRPGMDYWGQGTQVTVSS”, “low polyreactivity”. Regarding “QVQLVESGGGLVQAGGPLRLSCAASGFTFGYYTMGWYRQAPGKERELVAAISWRGGRTYYADSVKGRFTISRDNAKNTVYLQMNSLKPEETAVYYCAAEYTYGWTYRPFVYWGQGTQVTVSS”, the “polyreactivity (PSR sort gate)” value is given as “high polyreactivity”. On to “QVQLVESGGGLVQAGGRLRLSCAASGRTIVRYVIGWYRQAPGKERELVARISFSSGSTYYADSVKGRFTISRDNAKNTVYVQMNSLIPEDTAVYYCAASPDVSFRRFSRVVSGDYWGQGTKVTVSS”, for which the “polyreactivity (PSR sort gate)” value is on record as “high polyreactivity”. “QVQLVESGGGLVQAGGSLRLSCAASGFTFRINAMGWYRQAPGKERELVAAISWSGGSTYYADSVKGRFTISRDNAKNTVYLQMNSLKPEDTAFYYCNKVQSSRYRSQRTFQYGYWGQGTQVTVSS”: the “polyreactivity (PSR sort gate)” value is given as “high polyreactivity”. The result for “QVHLVESGGGLVQAGGSLRLSCAASGRTFYIYAMGWYRQAPGKERELVAGIRWSGDSTYYADSVKGRFTISRDNAKNTVYLQMNRLKPEDTAVYYCAADISYELLSYYWYYYWGQGSQVTVSS” reads “high polyreactivity”; that for “QVQLVESGGGLVQAGGSLRLSCAASGSIFWQNAMGWYRQAPGKERELVARITSGGSTNYADSVKGRFTISRDNAKNTFYLQMNSLKPEDTGVYYCNRVRYRSYFAYYYWGQGTQVTVSS”, “high polyreactivity”; that for “QVQLVESGGGLVQAGGSLRLSCAASGSIFRINVMGWYRQAPGKERELVAAITRGDSTNYADSVKGRFTISRDNAKNSVYLQMNSLKPEDTAVYYCAAGYYYYLRDHDYWGQGTQVTVSS”, “low polyreactivity”. To “QVKHVESGGGLVQAGGSLRLSCAASGFTFYTYAMGWYRQKPGKESELVATISSGGRTNYADSVKGRFTISRDNAKNTVYLQMNSLKPEDTAVYYCYKRHRGGAVRFDSWGQGTQVTVSS” belongs “low polyreactivity”.

(Values after the nanobody polyreactivity screen of Harvey et al. (2022).)
